Data set [1] has as its target T1, GST-MH1-Mad (GST-MadN) (Drosophila melanogaster, UniProt P42003 26-150). The experiment in a line: EMSA; 1 ug poly(dI-dC), 5 mM MgCl2; out-competed by unlabeled WT; Ap: 20 mM HEPES pH 7.8, 50 mM KCl, 10% glycerol, 0.25 mM EDTA, 0.1 mg/ml BSA, 1 mM DTT, 21 C; Mad: 25 mM Tris pH 7.5, 35 mM KCl, 80 mM NaCl, 5 mM MgCl2, 3.5 mM. The settings on record: protein: recombinant; tags: GST (pGEX6p1); label: IRDye 700.

The target of data set [2] is T2, His::Svp (Drosophila melanogaster, UniProt P16375 1-543).
T2 sequence: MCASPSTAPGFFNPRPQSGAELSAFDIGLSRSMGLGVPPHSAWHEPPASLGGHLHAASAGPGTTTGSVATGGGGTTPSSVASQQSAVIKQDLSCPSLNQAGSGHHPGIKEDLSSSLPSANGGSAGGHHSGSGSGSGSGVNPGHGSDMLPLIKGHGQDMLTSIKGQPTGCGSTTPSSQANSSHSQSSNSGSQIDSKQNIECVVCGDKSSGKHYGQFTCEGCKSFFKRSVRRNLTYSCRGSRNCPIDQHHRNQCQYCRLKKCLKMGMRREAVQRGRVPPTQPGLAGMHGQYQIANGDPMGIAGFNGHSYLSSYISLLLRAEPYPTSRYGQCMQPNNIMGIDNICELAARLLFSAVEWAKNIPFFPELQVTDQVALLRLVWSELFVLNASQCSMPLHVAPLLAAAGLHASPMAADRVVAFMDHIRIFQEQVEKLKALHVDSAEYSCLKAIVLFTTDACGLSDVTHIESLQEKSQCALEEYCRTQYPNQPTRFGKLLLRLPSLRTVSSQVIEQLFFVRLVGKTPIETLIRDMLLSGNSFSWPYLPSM
The data set can be described thus: EMSA; with or without poly(dI-dC); out-competed by WT at 20:1; Ap: 20 mM HEPES pH 7.8, 50 mM KCl, 10% glycerol, 0.25 mM EDTA, 0.1 mg/ml BSA, 1 mM DTT, 21 C; Mad: 25 mM Tris pH 7.5, 35 mM KCl, 80 mM NaCl, 5 mM MgCl2, 3.5 mM. The settings on record: protein: recombinant; tags: N-term His; GST removed with PreScission protease; chain copies: 2; label: IRDye 700.

Data set [3] addresses T1, GST-MH1-Mad (GST-MadN). The experiment in a line: competition; vs labeled BMP-RE; Ap: 20 mM HEPES pH 7.8, 50 mM KCl, 10% glycerol, 0.25 mM EDTA, 0.1 mg/ml BSA, 1 mM DTT, 21 C; Mad: 25 mM Tris pH 7.5, 35 mM KCl, 80 mM NaCl, 5 mM MgCl2, 3.5 mM. The settings on record: protein: recombinant; tags: GST (pGEX6p1); label: unlabeled.

T1 sequence (P42003 26-150): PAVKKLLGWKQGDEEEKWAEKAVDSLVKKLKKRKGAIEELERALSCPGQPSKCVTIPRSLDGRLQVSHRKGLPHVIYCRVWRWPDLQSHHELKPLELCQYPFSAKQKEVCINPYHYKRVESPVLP

B1: BMP-RE probe (dsDNA)
DNA 1: GCCAGAGGCGCCACAATGTATCCCGTT
DNA 2: AACGGGATACATTGTGGCGCCTCTGGC
In the case of B1, in data set [1], the binding result is “binds”.

B2: DR1 Svp probe (dsDNA)
DNA 1: AGCTCTCAGGTCAGAGGTCAGAGAGCT
DNA 2: AGCTCTCTGACCTCTGACCTGAGAGCT
On to B2, for which, in data set [2], the binding result is on record as “binds”.

B3: MutMad BMP-RE competitor (dsDNA)
DNA 1: GCCAGATAGTAGACAATGTATCCCGTT
DNA 2: AACGGGATACATTGTCTACTATCTGGC
Consider B3, for which the binding result in data set [3] is recorded as “no binding”.
